In the DeepSol protein solubility set:

Assay: soluble on expression in E. coli; label from the status in PepcDB or PDB records

**Q.** For “MGSDKIHHHHHHMSKYESEVVVDGFHYLEGPRWYKDALWFVDFYTKGVYRVNDESVAEKIVHVEQQPSGLGWLPDGRMLIVSMKDRKVLRLEDNGELVVHADIWDHCEGHANDMVVAPNGNAYVGNFGFDLMGGADHKQTGLVLVKPDGNSQIVAEGLAFPNGMVISADEKTLIVNELFGNKISQFDINADGTLGEKRDFANFGDLGDEPNLGARIENANILPDGLALDSEGAVWIADTLNQRAVRISEGGEILDIVNTAPDGIFAVALGGQNGKTLFMCAAPDWDEASRTAETKGRMLSTQVKVGHAGTP”, which “soluble on expression in E. coli” value is on record?
**A.** Its value is “not soluble”.

**Q.** For “MGSDKIHHHHHHMVKGLYTAHTGMVNEMKRMDVLANNLANSDTYGFKKEGTTSHSFKNELAIKIKDTSNYGLHKNLGSMTYGVHLGETYTDWDEGSFKVTDNPTDLAIGGKGFFAVAFTDKSGQTSVKYTRDGAFKVNADGYLVTADGDHVLNATGALSGDGGEANWVKVDPNEKFSVNSLGYITQNNQLVGTIGVVDVDNYDYIEKYGENLYNLTAGGNIIASDAEIEQGALETSNVNVVNEMVLG”, which “soluble on expression in E. coli” value is on record?
**A.** Its value is “not soluble”.

**Q.** With “MSLGNAPLPFDVGGPFELTDQHGARRSQADPQGHGQLLFFGYATCPGICSAAMPMMADAVDRLAEAGIPVTPVMITVDPERDRPGEMNAPLARYHPDFIGLTGSEAELQAAYSAYSVERELAYVDPEYGPVYTHGAFIYLLDAKGEVLSLFPPILSSDRVVELARKYLGSEGEGHHHHHH” as the sequence, how does the “soluble on expression in E. coli” value read?
**A.** Its value is “soluble”.

**Q.** Which “soluble on expression in E. coli” value does the source give for “MGSDKIHHHHHHMTKLHYIRNKDCNMKEGLKLNKGKLIAQGKTSEVFEYGQDKILKLFRKDLPEKNIENEYEVSFNLSKKMKLVPKVYDLVEVDDRKGIIYEKVNGTTMMEVISSKPWKVKKEAQRLAELHEAIQKPVDFELPDYKTTLKENISKTELLEEDIKKRLYDYIDELKDDDLLCHGDFHPDNVLITEEGEVIIDWMTASKGSRIADIARTSVMLKFGASPVKRSAEKKIIKFVRNRFYSGYIKHYMKITGINKEQIEEWELPIAAARLNEWLPKSEKVDLLKFIDMKMK” here?
**A.** Its value is “not soluble”.

**Q.** For “GPVDPVKTFSEVLAAVEDRTISKELLDEKCRKILAFKYALIICKGISKELPAEEVVRQVNSREAERMSEDLWQASITILKNKKHFLPLSEGNRIACVNLDGAASNTFTQELGLTSKDCYSYAKGSNSTRTQELLSKLKGYDAVIVTVRHTQPDWAGTFLHRLTEQNHTAIVFFTSPYVADRIPAAMDKARAIVVAYENVKEAARMAAYKIRDRVVVSSGGGIPVVQEEEDTDPTANMMPPTELSSGLIPMPA”, which “soluble on expression in E. coli” value is on record?
**A.** Its value is “not soluble”.

**Q.** For “SSSRGFNIKARGLCNNNNGGGGTGAKCGRWNPTVEQVKLLTDLFKAGLRTPSTDQIQKISMELSFYGKIESKNVFYWFQNHKARERQKCRKISTVKFDHRQDTDLSKPRRDNVRRHQLPAKG”, which “soluble on expression in E. coli” value is on record?
**A.** Its value is “soluble”.

**Q.** With “MPFAHKVVMRTALYWEPLEDGKVKCKLCPLNCIINPEKRGSCKVRINIDGKLYTLNYGKVSSIALDPIEKKPLFHFWPGSCAFSIGTVGCNMHCKHCQNWEISQADESFPYLQDATPESIVRLARHYECESIAYTYNEPTIWYEFVLDTAKLAKKEGLNNILVTNGYINEEPFRELAKYIDAMNIDIKAFNDKFYMKISSVPSGEPSRRTAVIAKKEFGIHVELTYLIIPTLNDNEEEIRRFARWVVEELGDDTPVHFSRFFPHYKLLNLPPTPIQTLEKAYKIAKEEGLKFVYLGNVPGHEGENTYCPRCGKLLIERWGFEILRYEIKDGKCKYCGEQIPIVGEYQRKTYRGMWW” as the sequence, how does the “soluble on expression in E. coli” value read?
**A.** Its value is “not soluble”.

**Q.** With “GIKDSPVNKVEPNDTLEKVFVSVTKYPDEKRLKGLSKQLDWSVRKIQCWFRHRRNQDKP” as the sequence, how does the “soluble on expression in E. coli” value read?
**A.** Its value is “soluble”.

**Q.** For “MGSDKIHHHHHHMQLDKYTAKKIVKRAMKIIHHSVNVMDHDGVIIASGNSTRLNQRHTGAVLALRENRVVEIDQALAQKWNFEAQPGINLPIHYLGKNIGVVGISGEPTQVKQYAELVKMTAELIVEQQALLEQESWHRRYKEEFILQLLHCNLNWKEMEQQAKFFSFDLNKSRVVVLIKLLNPALDNLQNLINYLEQSEFAQDVAILSLDQVVVLKTWQNSTVLSAQMKTLLPADYSKQDYKIAVGACLNLPLFEQLPLSFQSAQSTLSYGLKHHPRKGIYVFDEHRLPVLLAGLSHSWQGNELIKPLSPLFSEENAILYKTLQQYFLSNCDLYLTAEKLFVHPNTLRYRLNKIEQITGLFFNKIDDKLTLYLGTLLEH”, which “soluble on expression in E. coli” value is on record?
**A.** Its value is “not soluble”.

**Q.** Which “soluble on expression in E. coli” value does the source give for “MSLAELDLTGGMDEARGDIADLLGKEERKILTTGNAEIDKKIADGLPLGSLTLIEGENDTGKSVLTQQFIWGSMHNNLRVDLFSTELTTKSFLTQMESMSLDISDFFAWGYIRLFHCHLVEFKWTPDAMNDILERIITHVKFSNTDVAIIDSLTIFTEYTTNEAVLTFLTQAKNICDQGKTILITMHSYAFTDEVLTRVRSICDAHLLLMRKLMGDKYVMVLEVVKVRGARKTTGNLVSFEVHPGYGMKIIPVSVAKVEGHHHHHH” here?
**A.** The value was “soluble”.

**Q.** For “MKIEEGKVVIWHAMQPNELEVFQSLAEEYMALCPEVEIVFEQKPNLEDALKAAIPTGQGPDLFIWAHDWIGKFAEAGLLEPIDEYVTEDLLNEFAPMAQDAMQYKGHYYALPFAAETVAIIYNKEMVSEPPKTFDEMKAIMEKYYDPANEKYGIAWPINAYFISAIAQAFGGYYFDDKTEQPGLDKPETIEGFKFFFTEIWPYMAPTGDYNTQQSIFLEGRAPMMVNGPWSINDVKKAGINFGVVPLPPIIKDGKEYWPRPYGGVKLIYFAAGIKNKDAAWKFAKWLTTSEESIKTLALELGYIPVLTKVLDDPEIKNDPVIYGFGQAVQHAYLMPKSPKMSAVWGGVDGAINEILQDPQNADIEGILKKYQQEILNNMQG”, which “soluble on expression in E. coli” value is on record?
**A.** The value was “soluble”.

**Q.** Which “soluble on expression in E. coli” value does the source give for “GPGSMRNLLGESAVSSLVIEEPTKVAMTTSPTAVLNSSMSTDTDSTAVSPARVKGVSPQTKANGNSNGDGSTAIRGQSNDKQLEAPTEVQYRAVEVMVVDRGTQTTTTVGCQTDPEPSQSPVGGAMPFHRGFCPRCTCCCRGVVRDYPWRNAREEEDRSSRFQEELETIQKSIDMMIARYNLPPPPMPRY” here?
**A.** The value was “not soluble”.

**Q.** With “MSLESLAAKVVERLNRAESAAELRFCHDELARELRRCLAPEQMKQLAGDVVCVHEAILRRAFFLAERETMKRSVGIRPPAWCWYVMGSIGRCEPTIWTDQDHGILFNCPEEEEAACYEFIRHMAAVGVDMLHEAGYPYCSGYVMATNKRWAQSVRGWEQQLSSYLDSGWPNDIRFLLIAMDMRPLYGEAELAEKARKALFAAVAKRPPLLARMGEHVQFPPVPLGWLGNVQTERWGPYSGAVHMKQSGYVQLTNALKWLACFAHVPTAGTAERRRALEANGVLTAPLSDAVCEALSVYYSIRLKYSTEAGDGREYVLWRALERTEQKQLKQAMRTAKRLQRFVARRVANIHAEGHHHHHH” as the sequence, how does the “soluble on expression in E. coli” value read?
**A.** The value was “soluble”.

**Q.** Which “soluble on expression in E. coli” value does the source give for “MFKDKKILVIGGTGSIGQALIERILTENPAVIRVYSRDEYKQFLLAEKFRENANIRYLIGDVRDEDRLDRAMNDIDIVFNLAALKHVPACEYNPFEAVRTNVIGSQNVIACAMANKVKKVIYTSSDKAVSPTNTMGATKLLAERLMSSSNYSRGNTGTVFASVRFGNVMGTRGSVIPLFKQQVLEKGYITVTEPEMTRFMMSLSQAVELTIKACSIARGGEVFVLKMPVIRLKDLAEVIIEDMCKKNNIDPEKIEIKKIGLRPGEKMYEELMSEDESTKAVELNDMYVIMPPFENSYYINARKAVIGNYSSQKEKTLTKSQIRELLVREKLI” here?
**A.** Its value is “not soluble”.

**Q.** Which “soluble on expression in E. coli” value does the source give for “MSLHDYCLPCPTSLSGIAEVNPMSKPLVRWPINPLRTAVIVVDMQKVFCEPTGALYVKSTADIVQPIQKLLQAARAAQVMVIYLRHIVRGDGSDTGRMRDLYPNVDQILARHDPDVEVIEALAPQSDDVIVDKLFYSGFHNTDLDTVLRARDVDTIIVCGTVTNVCCETTIRDGVHREYKVIALSDANAAMDYPDVGFGAVSAADVQRISLTTIAYEFGEVTTTAEVIRRIESAYPHGREGHHHHHH” here?
**A.** Its value is “soluble”.

**Q.** With “MLSEQLLAQQHLPEKLKKNIPGLYFHGRVGRGKTMLMDLFYQHLAIKNKKRIHFHHFMESVHQQLAQLTGQSEPLSHIAAKWAQNIDLLCFDEFYVSDIGDAMLLSGLFSALFKQGVTLVATSNCQPEQLYRNGLQRERFLPTIALINQHCQIVSINGDVDHRRTKLSKNSCYNNYFLLANEGNEKLIERFQSLTDAEMLVSGEIEINHRQLCYLAQSANVIFFDFFALCSGPRSQRDYMVLAKDFDTVCIANVPKFSGELVPAVFSGVEDSYQRSGVLMGELQQLDDEARRFIALVDEFYDQNVKLIVSAQVDIFELYQGQQLAFEFERCQSRLIEMQQSLEHHHHHH” as the sequence, how does the “soluble on expression in E. coli” value read?
**A.** The value was “not soluble”.

**Q.** With “MSLAAGADAGPGPEPCATLVQGKFFGYFSAAAVFPANASRCSWTLRNPDPRRYTLYMKVAKAPVPCSGPGRVRTYQFDSFLESTRTYLGVESFDEVLRLCDPSAPLAFLQASKQFLQMRRQQPPQHDGLRPRAGPPGPTDDFSVEYLVVGNRNEGHHHHHH” as the sequence, how does the “soluble on expression in E. coli” value read?
**A.** The value was “not soluble”.

**Q.** Which “soluble on expression in E. coli” value does the source give for “MPAPQVMPAKVAPLPTSFRGTSVDGSFSVDASGNLLITRDIRNLFDYFLSAVGEEPLQQSLDRLRAYIAAELQEPARGQALALMQQYIDYKKELVLLERDLPRLADLDALRQREAAVKALRARIFSNEAHVAFFADEETYNQFTLERLAIRQDGKLSAEEKAAAIDRLRASLPEDQQESVLPQLQSELQQQTAALQAAGAGPEAIRQMRQQLVGAEATTRLEQLDRQRSAWKGRLDDYFAEKSRIEGNTGLSEADRRAAVERLAEERFSEQERLRLGALEQMRQAEQR” here?
**A.** Its value is “not soluble”.

**Q.** Which “soluble on expression in E. coli” value does the source give for “MSLGMASHPPIPILELADHIERLKANDNLKFSQEYESIDPGQQFTWEHSNLEVNKPKNRYANVIAYDHSRVLLSAIEGIPGSDYVNANYIDGYRKQNAYIATQGSLPETFGDFWRMIWEQRSATVVMMTKLEERSRVKCDQYWPSRGTETHGLVQVTLLDTVELATYCVRTFALYKNGSSEKREVRQFQFTAWPDHGVPEHPTPFLAFLRRVKTCNPPDAGPMVVHCSAGVGRTGCFIVIDAMLERIKHEKTVDIYGHVTLMRAQRNYMVQTEDQYIFIHDALLEAVTCGNTEVPARNLYAYIQKLTQIETGENVTGMELEFKRLEGHHHHHH” here?
**A.** Its value is “soluble”.

**Q.** Which “soluble on expression in E. coli” value does the source give for “MQPWQTDPTRAPVATKIVVAGGFGVGKTTLVTAVSEITPLQTEALMTEASEETDDLTATPGKLTTTVAMDFGRITLDDDLVLYLFGTPGQQRFWFMWDDLVRGAIGAVVLADTRRLKDCWPALDYFESCGLPYVVAVNHFDGSELFEAEDVREALTIPAHIPVMIMDARRRISAIETLLSLVGHALDETPELEHHHHHH” here?
**A.** Its value is “not soluble”.

**Q.** For “MASRGLDLWLDEHVWKRKQEIGVKGENLLLPDLWLDFLQLSPIFQRKLAAVIACVRRLRTQATVYPEEDMCMAWARFCDPSDIKVVILGQDPYHGGQANGLAFSVAYGFPVPPSLRNIYAELHRSLPEFSPPDHGCLDAWASQGVLLLNTILTVQKGKPGSHADIGWAWFTDHVISLLSERLKACVFMLWGAKAGDKASLINSKKHLVLTSQHPSPLAQNSTRKSAQQKFLGNNHFVLANNFLREKGLGEIDWRL”, which “soluble on expression in E. coli” value is on record?
**A.** Its value is “soluble”.

**Q.** For “MVETLPALEIGEDERLDLENLATGAFFPVKGFMTREEALSVAHEMRLPTGEVWTIPILLQFREKPRVGPGNTVALLHGGERVALLHVAEAYELDLEALARAVFGTDSETHPGVARLYGKGPYALAGRVEVLKPRPRTPLEKTPEEVRAFFRQRGWRKVVAFQTRNAPHRAHEYLIRLGLELADGVLVHPILGAKKPDDFPTEVIVEAYQALIRDFLPQERVAFFGLATPMRYAGPKEAVFHALVRKNFGATHFLVGRDHAGVGDFYDPYAAHRIFDRLPPLGIEIVKVGAVFHCPLCGGIASERTCPEGHREKRTAISMTKVRALLREGKAPPSELVRPELLPILRRGV”, which “soluble on expression in E. coli” value is on record?
**A.** The value was “soluble”.
